Source: US20250057965A1, “PEPTIDE OLIGONUCLEOTIDE CONJUGATES” (Sarepta Therapeutics, Inc., priority 2015, published 2025)
Several values for one entry are separate records, joined by “and”; a condition that tells them apart may be missing. Equal entries are not always repeated.

Legend:
[1] = Animal health / clinical observations in dose response study; format: in vivo
Description: (§1) The day of dosing on the study was designated as Study Day 1. Each peptide-oligomer-conjugate was vortexted for approximately 10 seconds prior to dosing, and administered via tail vein as a slow push bolus (˜5 seconds; 200 μL). Dosing was performed over two days. All animals receiving the same peptide-oligomer-conjugate were dosed on the same day. […] Any remaining spare animals were necropsied and tissues collected as specified below.
(§2) Any animal showing signs of distress, particularly if death appeared imminent was humanely euthanized according to Numira Biosciences Standard Operating Procedures. Body weights were recorded on the day after arrival, the day of dosing, and the day of necropsy. Detailed clinical observations were conducted and recorded at 0 minutes, 15 minutes, and 2 hours post-dose to assess tolerability of injections.
Animals unlikely to survive until the next scheduled observation were weighed and euthanized. Animals found dead were weighed and the time of death was estimated as closely as possible. Blood and tissue samples were not collected.
The partial gross necropsy included examination and documentation of findings. All external surfaces and orifices were evaluated. All abnormalities observed during the collection of the tissues listed below were described completely and recorded. No additional tissues were taken.

[2] = Individual body weights in dose response study; format: in vivo, Mouse (mdx); details: mdx mice
Description: as §2

[3] = Maximum tolerated dose (MTD) study in mdx mice: survival and in-life observations; format: in vivo, Mouse (mdx); details: for MTD % Survival / MTD in-life observations: n=3
Description: The maximum tolerated dose (MTD) of selected peptide-oligomer-conjugates of the disclosure was determined in mice according to the regimens shown in Table 8. […] PPMO-5 has a MTD>200 mg/kg.
Importantly, the toxicity of a peptide-oligomer-conjugate can be described in two phases: t1 and t2. t1 refers to rapid death, or death within 48 hours, most likely due to cardiopulmonary collapse. t2 refers to chronic kidney toxicity, observed with a peptide-oligomer-conjugate after multiple weekly doses. The MTD measurements described herein refer to ti toxicity (48 hour endpoint).

dystrophin exon 23 = test: Dose response for efficacy in mdx mice: % exon 23 skipping by nested RT-PCR; format: in vivo, Mouse (mdx); details: for % Exon 23 Skip (Average), Diaphragm / % Exon 23 Skip (Average), Heart / % Exon 23 Skip (Average), Quadricep (L): mdx mice, 7 days post-dose, n=5
Excerpt: The aim of this study was to compare efficacy of peptide-oligomer-conjugates of the disclosure in a dose response study in mice. The spacing between the peptide and PMO modulates efficacy. Accordingly, PEG lengths of 3, 4, and 8 were used to systematically increase spacing between Ac-R6-Gly (SEQ ID NO:1) and the PMO. Additionally, an all-D amino acid version of Ac-R6-Gly (SEQ ID NO:1) and Ac-R6-Apa (SEQ ID NO:4) (4-amino phenyl acetic acid; aromatic, hydrophobic linker) were used (Table 2).
Selected peptide-oligomer-conjugates that were tested are listed in Table 2 (the peptide-oligomer-conjugates were formulated in saline and stored at 5° C.).
Animals were randomized into treatment groups based on cage weights as specified in Table 4.
as §1
On day 8 (7 days post-dose), all animals, including any untreated or spare animals, were humanely euthanized with carbon dioxide. Euthanasia was performed in accordance with accepted American Veterinary Medical Association (AVMA) guidelines on Euthanasia, June 2007.
Tissues were collected within 15 minutes or less of euthanasia. All instruments and tools used were changed between treatment groups. All tissues were flash frozen and stored at a temperature lower than −70° C. as soon as possible after collection. The following tissues were collected: liver, kidneys, heart, quads, and diaphragm.
RNA from mouse quadriceps, heart, and diaphragm tissue was purified using GE Illustra RNAspin 96 well extraction kits. Briefly, 400 μL of lysis buffer (RA1+1% 2-mercaptoethanol was added to about 20-30 mg of frozen tissue in a plate with zirconia beads (Biospec) and homogenized using GenoGrinder (Spex Sample Prep) at 4×8 minutes at 1750 RPM; cooling between each run. The homogenate was immediately processed for RNA purification according to the GE RNAspin Illustra 96 well protocol. Total RNA was quantitated with a Nanodrop 2000 spectrophotometer (ThermoScientific).
RNA was analyzed by a classic nested PCR reaction. RT-PCR reagents were from Invitrogen unless otherwise specified. PCR reactions were run in a CFX96 or S1000 thermocycler (BioRad). Final cDNA products were separated on a NuPage 10% TBE gel (Invitrogen) run at 200V, 1 hr at room temperature. Gels were scanned with a Typhoon Trio (GE Healthcare) using a 670 BP 30 Cy5 emission filter and analyzed with ImageQuant software.
Primers used for PCR analysis were as follows: dystrophin outer forward (5′-[…]-3′; SEQ ID NO:9), dystrophin outer reverse (5′-[…]-3′; SEQ ID NO:10), dystrophin inner forward (5′-[…]-3′; SEQ ID NO:11), and dystrophin inner reverse (5′-[…]-3′; SEQ ID NO:12).

[4] = design: species or system Mouse (mdx); details: mouse, in vivo
Excerpt: BUN levels are increased when compared to PPMO-8.

[5] = 5 mg/kg single i.v., day 8, one value per animal, 5 mg/kg
[6] = 10 mg/kg single i.v., day 8, one value per animal, 10 mg/kg
[7] = 20 mg/kg single i.v., day 8, one value per animal, 20 mg/kg
[8] = 40 mg/kg single i.v., day 8, one value per animal (FD = found dead), 40 mg/kg
[9] = 80 mg/kg single i.v., day 8, one value per animal, 80 mg/kg
[10] = 100 mg/kg single i.v. injection
[11] = 150 mg/kg single i.v. injection
[12] = 200 mg/kg single i.v. injection

## CC(=O)N[C@@H](CCCNC(=N)N)C(=O)N[C@@H](CCCNC(=N)N)C(=O)N[C@@H](CCCNC(=N)N)C(=O)N[C@@H](CCCNC(=N)N)C(=O)N[C@@H](CCCNC(=N)N)C(=O)N[C@@H](CCCNC(=N)N)C(=O)NCC(=O)N1CCN(C(=O)OCCOCCOCCOC(=O)N2C[C@@H](COP(=O)(N(C)C)N3C[C@@H](COP(=O)(N(C)C)N4C[C@@H](COP(=O)(N(C)C)N5C[C@@H](COP(=O)(N(C)C)N6C[C@@H](COP(=O)(N(C)C)N7C[C@@H](COP(=O)(N(C)C)N8C[C@@H](COP(=O)(N(C)C)N9C[C@@H](COP(=O)(N(C)C)N%10C[C@@H](COP(=O)(N(C)C)N%11C[C@@H](COP(=O)(N(C)C)N%12C[C@@H](COP(=O)(N(C)C)N%13C[C@@H](COP(=O)(N(C)C)N%14C[C@@H](COP(=O)(N(C)C)N%15C[C@@H](COP(=O)(N(C)C)N%16C[C@@H](COP(=O)(N(C)C)N%17C[C@@H](COP(=O)(N(C)C)N%18C[C@@H](COP(=O)(N(C)C)N%19C[C@@H](COP(=O)(N(C)C)N%20C[C@@H](COP(=O)(N(C)C)N%21CCN(C(=O)OCCOCCOCCO)CC%21)O[C@@H](n%21cnc%22c(=O)[nH]c(N)nc%22%21)C%20)O[C@@H](n%20ccc(N)nc%20=O)C%19)O[C@@H](n%19cc(C)c(=O)[nH]c%19=O)C%18)O[C@@H](n%18cnc%19c(N)ncnc%19%18)C%17)O[C@@H](n%17cc(C)c(=O)[nH]c%17=O)C%16)O[C@@H](n%16cc(C)c(=O)[nH]c%16=O)C%15)O[C@@H](n%15cnc%16c(N)ncnc%16%15)C%14)O[C@@H](n%14ccc(N)nc%14=O)C%13)O[C@@H](n%13ccc(N)nc%13=O)C%12)O[C@@H](n%12cc(C)c(=O)[nH]c%12=O)C%11)O[C@@H](n%11cc(C)c(=O)[nH]c%11=O)C%10)O[C@@H](n%10cnc%11c(N)ncnc%11%10)C9)O[C@@H](n9cnc%10c(N)ncnc%109)C8)O[C@@H](n8ccc(N)nc8=O)C7)O[C@@H](n7ccc(N)nc7=O)C6)O[C@@H](n6ccc(N)nc6=O)C5)O[C@@H](n5cnc6c(N)ncnc65)C4)O[C@@H](n4cnc5c(=O)[nH]c(N)nc54)C3)O[C@@H](n3cc(C)c(=O)[nH]c3=O)C2)CC1 (stereo partly drawn) [PPMO-4]
[1]; 5 mg/kg, at necropsy, animal 2406
  Animal health observation: right eye closed and had a white substance exuding from it
[1]; 40 mg/kg single i.v.
  Animal health observation: slow to recover at the 15 minute observation but recovered by the 2 hour observation
[1]; 80 mg/kg single i.v.
  Animal health observation: slow to recover at the 15 minute observation but recovered by the 2 hour observation
[2]; [5]
  Individual body weight, pre-necropsy: 21.45 g and 22.61 g and 19.15 g and 19.6 g and 21.53 g
[2]; [6]
  Individual body weight, pre-necropsy: 19.41 g and 21.91 g and 18.98 g and 20.43 g and 20.49 g
[2]; [7]
  Individual body weight, pre-necropsy: 20.09 g and 21.25 g and 22.62 g and 20.71 g and 17.08 g
[2]; [8]
  Individual body weight, pre-necropsy: 20.59 g and 18.25 g and 22.63 g and 21.35 g and 21.22 g
[2]; [9]
  Individual body weight, pre-necropsy: 23.86 g and 17.9 g and 21.36 g and 21.1 g and 20.69 g
[3]; 50 mg/kg single i.v. injection
  MTD % Survival: 100%
[3]; [10]
  MTD % Survival: 100%
[3]; 100 mg/kg single i.v.
  MTD in-life observations: 3/3 slow to recover at 15 min., ok by 2 hours
[3]; [11]
  MTD % Survival: 100%
[3]; 150 mg/kg single i.v.
  MTD in-life observations: 3/3 lethargic at 15 min., ok by 2 hours
[3]; [12]
  MTD % Survival: 0%
[3]; 200 mg/kg single i.v.
  MTD in-life observations: 3/3 lethargic at 15 min and 2 hours, 3/3 dead at 24 hours

## Ac-dR6-G (all-D amino acid R) (SEQ ID NO: 8) (RRRRRRG; N-acetyl; all-D amino acids; SITE 1 acetylation of N terminus; SITE 1..6 D-Arginine) [PPMO-7]
Dystrophin exon 23; comparison with other conjugates / linkers
  Efficacy (% exon 23 skipping), in words: improved efficacy
Dystrophin exon 23; 5 mg/kg single i.v. injection
  % Exon 23 Skip (Average), Diaphragm: 1%
  % Exon 23 Skip (Average), Heart: 0%
  % Exon 23 Skip (Average), Quadricep (L): 4%
Dystrophin exon 23; 10 mg/kg single i.v. injection
  % Exon 23 Skip (Average), Diaphragm: 6%
  % Exon 23 Skip (Average), Heart: 2%
  % Exon 23 Skip (Average), Quadricep (L): 11%
Dystrophin exon 23; 20 mg/kg single i.v. injection
  % Exon 23 Skip (Average), Diaphragm: 30%
  % Exon 23 Skip (Average), Heart: 13%
  % Exon 23 Skip (Average), Quadricep (L): 53%
Dystrophin exon 23; 40 mg/kg single i.v. injection
  % Exon 23 Skip (Average), Diaphragm: 67%
  % Exon 23 Skip (Average), Heart: 42%
  % Exon 23 Skip (Average), Quadricep (L): 89%
Dystrophin exon 23; 80 mg/kg single i.v. injection
  % Exon 23 Skip (Average), Diaphragm: 93%
  % Exon 23 Skip (Average), Heart: 93%
  % Exon 23 Skip (Average), Quadricep (L): 92%
[2]; [5]
  Individual body weight, pre-necropsy: 22.3 g and 22.46 g and 23.21 g and 21.43 g and 23.41 g
[2]; [6]
  Individual body weight, pre-necropsy: 17.85 g and 22.7 g and 23.56 g and 21.97 g and 21.8 g
[2]; [7]
  Individual body weight, pre-necropsy: 20.85 g and 20.17 g and 21.1 g and 21.38 g and 24.55 g
[2]; [8]
  Individual body weight, pre-necropsy: 22.58 g and 22.21 g and 21.29 g and 18.19 g and 20.93 g
[2]; [9]
  Individual body weight, pre-necropsy: 21.98 g and 22.63 g and 19.65 g and 19.9 g and 22.86 g
[3]; 50 mg/kg single i.v. injection
  MTD % Survival: 100%
[3]; [10]
  MTD % Survival: 100%
[3]; 100 mg/kg single i.v.
  MTD in-life observations: 3/3 slow to recover at 15 min., ok by 2 hours
[3]; [11]
  MTD % Survival: 100%
[3]; 150 mg/kg single i.v.
  MTD in-life observations: 3/3 slow to recover at 15 min., ok by 2 hours
[3]; [12]
  MTD % Survival: 33%
[3]; 200 mg/kg single i.v.
  MTD in-life observations: 2/3 dead at 15 minutes, 1/3 lethargic at 15 min and 2 hours
[3]; MTD study, in words
  Tolerability: not well-tolerated
[4]
  Liver and kidney serum chemistry markers: increased liver and kidney serum chemistry markers
